Each block holds one molecule with its values, some of them ahead of it.
Columns and labels:
[1] = biological target: Growth hormone secretagogue receptor (Homo sapiens) (UniProt Q92847); details: cited from earlier work
ghrelin [2] = biological target: T1, ghrelin (Homo sapiens, UniProt Q9UBU3, octanoylated ghrelin); experiment: fluorescence displacement of atto520-ghrelin (Goldstein-Barrett corrected)
T1 chain: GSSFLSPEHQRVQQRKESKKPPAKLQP

ghrelin [3] = biological target: T1, ghrelin; experiment: fluorescence displacement of atto520-ghrelin

Molecule: Ghrelin (from UniProt Q9UBU3)
Kd [1]: 0.15 nM

Ki (ghrelin [2]): 10 nM
IC50 (ghrelin [3]): 6870 nM
B1: GHS receptor (GHSR1a) (protein)
chain: MWNATPSEEPGFNLTLADLDWDASPGNDSLGDELLQLFPAPLLAGVTATCVALFVVGIAGNLLTMLVVSRFRELRTTTNLYLSSMAFSDLLIFLCMPLDLVRLWQYRPWNFGDLLCKLFQFVSESCTYATVLTITALSVERYFAICFPLRAKVVVTKGRVKLVIFVIWAVAFCSAGPIFVLVGVEHENGTDPWDTNECRPTEFAVRSGLLTVMVWVSSIFFFLPVFCLTVLYSLIGRKLWRRRRGDAVVGASLRDQNHKQTVKMLAVVVFAFILCWLPFHVGRYLFSKSFEPGSLEIAQISQYCNLVSFVLFYLSAAINPILYNIMSKKYRVAVFRLLGFEPFSQRKLSTLKDESSRAWTESSINT

From article PMC5384189 (2017)
